# Experimental data reported in patent US20140315251A1.
# Legend:
# [1] = biological target: Recombinant canine IL-31 produced in CHO cells (canine); experiment: cell-based or functional assay
# [2] = biological target: Recombinant canine IL-31 produced in CHO cells (canine); experiment: SPR (Biacore), IL-31 amine-coupled to the chip, mAb in solution, 1:1 fit
# [3] = biological target: Recombinant canine IL-31 produced in CHO cells (canine); experiment: SPR (Biacore), IL-31 amine-coupled to the chip, mAb in solution, 1:1 fit; Biacore affinity (SPR); weak, about 0.5 uM; not active in the DH82 pSTAT assay
# [4] = biological target: Recombinant canine IL-31 produced in CHO cells (canine)
# Chain of Recombinant canine IL-31 produced in CHO cells (canine) (chain, as listed by the source limits assumed, form in doubt): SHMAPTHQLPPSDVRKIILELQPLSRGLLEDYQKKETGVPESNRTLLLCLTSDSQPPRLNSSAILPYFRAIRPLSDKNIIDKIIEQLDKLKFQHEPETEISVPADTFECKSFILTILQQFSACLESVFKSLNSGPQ
"DH82 pSTAT Assay, Co-incubation IC50 [1]","DH82 pSTAT Assay, Pre-treatment IC50 [1]",Kd [2],Kd [3],IC50 (inhibition of canine IL-31 induced pSTAT signaling in canine DH82 monocytes) [4],Binder
1.76 µg/ml,3.46 µg/ml,7.24 pM,,,"Mouse 19D07 (antibody, V domains shown) VH: EVKLVESGGGLVKPGGSLKLSCAASGFAFSSYDMSWVRQIPEKRLEWVATITSGGGYTYSADSVKGRFTISRDNARNTLYLQMSSLRSEDTAVYYCARQNWVVGLAYWGQGTLVTVSA VL: DIVMSQSPSSLSVSAGDKVTMSCKSSQSLLNSGNQKNYLAWYQQKPWQPPKLLIYGASTRESGVPDRFTGSGSGTDFTLTISSVQAEDLAVYYCQNDYSYPYTFGGGTKLEIK"
1.92 µg/ml,1.33 µg/ml,0.515 pM,,,"Chimeric 19D07 (antibody, V domains shown) VH: EVKLVESGGGLVKPGGSLKLSCAASGFAFSSYDMSWVRQIPEKRLEWVATITSGGGYTYSADSVKGRFTISRDNARNTLYLQMSSLRSEDTAVYYCARQNWVVGLAYWGQGTLVTVSA VL: DIVMSQSPSSLSVSAGDKVTMSCKSSQSLLNSGNQKNYLAWYQQKPWQPPKLLIYGASTRESGVPDRFTGSGSGTDFTLTISSVQAEDLAVYYCQNDYSYPYTFGGGTKLEIKR"
1.73 µg/ml,2.28 µg/ml,1.01 pM,,,"Mouse 34D03 (antibody, V domains shown) VH: EVQLVESGGDLVKPGGSLKLSCAASGFSFSNYGMSWVRQTPDKRLEWVATISYGGSYTYYPDNIKGRFTISRDNAKNTLYLQMSSLKSEDTAMYYCVRGYGYDTMDYWGQGTSVTVSS VL: DILLTQSPASLAVSLGQRAIISCKASQSVSFAGTGLMHWYQQKPGQQPKLLIYRASNLEAGVPTRFSGSGSRTDFTLNIHPVEEEDAATYFCQQSREYPWTFGGGTKLEIK"
1.28 µg/ml,1.08 µg/ml,4.65 pM,,,"Chimeric 34D03 (antibody, V domains shown) VH: EVQLVESGGDLVKPGGSLKLSCAASGFSFSNYGMSWVRQTPDKRLEWVATISYGGSYTYYPDNIKGRFTISRDNAKNTLYLQMSSLKSEDTAMYYCVRGYGYDTMDYWGQGTSVTVSS VL: DILLTQSPASLAVSLGQRAIISCKASQSVSFAGTGLMHWYQQKPGQQPKLLIYRASNLEAGVPTRFSGSGSRTDFTLNIHPVEEEDAATYFCQQSREYPWTFGGGTKLEIKR"
2.67 µg/ml,3.35 µg/ml,4.97 pM,,,"11E12 Heterochimera (antibody, V domains shown) VH: EVQLVQSGAEVKKPGASVKVSCKTSGYTFKYYDINWVRQAPGAGLDWMGWIFPGDGGTKYNETFKGRVTLTADTSTSTAYMELSSLRAGDIAVYYCARGGTSVIRDAMDYWGQGTLVTVSS VL: DIVLTQSPASLAVSLGQRATISCRASESVDNYGISFMHWYQQKPGQPPKLLIYRASNLESGIPARFSGSGSRTDFTLTINPVETDDVATYYCQQSNKDPLTFGAGTKLELKR"
2.7 µg/ml,5.31 µg/ml,147 pM,,,"Caninized 11E12 FW2 (antibody, V domains shown) VH: EVQLVQSGAEVKKPGASVKVSCKTSGYTFKYYDINWVRQAPGAGLDWMGWIFPGDGGTKYNETFKGRVTLTADTSTSTAYMELSSLRAGDIAVYYCARGGTSVIRDAMDYWGQGTLVTVSS VL: DIVMTQTPLSLSVSPGEPASISCRASESVDNYGISFMHWYQQKPGQPPKLLIYRASNLESGVPDRFSGSGSGTDFTLRISRVEADDAGVYYCQQSNKDPLTFGAGTKLEIKR"
5.49 µg/ml,5.18 µg/ml,5.16 pM,,,"Caninized 11E12 13 (antibody, V domains shown) VH: EVQLVQSGAEVKKPGASVKVSCKTSGYTFKYYDINWVRQAPGAGLDWMGWIFPGDGGTKYNETFKGRVTLTADTSTSTAYMELSSLRAGDIAVYYCARGGTSVIRDAMDYWGQGTLVTVSS VL: DIVMTQTPLSLSVSPGEPASISCRASESVDNYGISFMHWFQQKPGQSPQLLIYRASNLESGVPDRFSGSGSGTDFTLRISRVEADDAGVYYCQQSNKDPLTFGAGTKLEIKR"
,,,506000 pM,,"Caninized 11E12 (antibody, V domains shown) VH: EVQLVQSGAEVKKPGASVKVSCKTSGYTFKYYDINWVRQAPGAGLDWMGWIFPGDGGTKYNETFKGRVTLTADTSTSTAYMELSSLRAGDIAVYYCARGGTSVIRDAMDYWGQGTLVTVSS VL: DIVMTQTPLSLSVSPGEPASISCRASESVDNYGISFMHWFQQKPGQSPQRLIYRASNLESGVPDRFSGSGSGTDFTLRISRVEADDAGVYYCQQSNKDPLTFGAGTKLEIKR"
1.61 µg/ml,2.28 µg/ml,0.893 pM,,,"Mouse 11E12 (antibody, V domains shown) VH: QVQLQQSGAELVKPGASVKLSCKASGYTFKYYDINWVRQRPEQGLEWIGWIFPGDGGTKYNETFKGKATLTTDKSSSTAYMQLSRLTSEDSAVYFCARGGTSVIRDAMDYWGQGTSVTVSS VL: DIVLTQSPASLAVSLGQRATISCRASESVDNYGISFMHWYQQKPGQPPKLLIYRASNLESGIPARFSGSGSRTDFTLTINPVETDDVATYYCQQSNKDPLTFGAGTKLELK"
1.48 µg/ml,1.57 µg/ml,0.268 pM,,,"Chimeric 11E12 (antibody, V domains shown) VH: QVQLQQSGAELVKPGASVKLSCKASGYTFKYYDINWVRQRPEQGLEWIGWIFPGDGGTKYNETFKGKATLTTDKSSSTAYMQLSRLTSEDSAVYFCARGGTSVIRDAMDYWGQGTSVTVSS VL: DIVLTQSPASLAVSLGQRATISCRASESVDNYGISFMHWYQQKPGQPPKLLIYRASNLESGIPARFSGSGSRTDFTLTINPVETDDVATYYCQQSNKDPLTFGAGTKLELKR"
2.42 µg/ml,2.25 µg/ml,29.1 pM,,2.29 µg/mL,"Caninized 34D03 (antibody, V domains shown) VH: EVQLVESGGDLVKPGGSLRLSCVASGFTFSNYGMSWVRQAPGKGLQWVATISYGGSYTYYPDNIKGRFTISRDNAKNTLYLQMNSLRAEDTAMYYCVRGYGYDTMDYWGQGTLVTVSS VL: EIVMTQSPASLSLSQEEKVTITCKASQSVSFAGTGLMHWYQQKPGQAPKLLIYRASNLEAGVPSRFSGSGSGTDFSFTISSLEPEDVAVYYCQQSREYPWTFGQGTKLEIKR"
,,,,2.41 µg/mL,"Felinized 34D03 (antibody, V domains shown) VH: DVQLVESGGDLVKPGGSLRLTCVASGFTYSNYGMSWVRQAPGKGLQWVATISYGGSYTYYPDNIKGRFTISRDNAKNTLYLQMNSLKTEDTATYYCVRGYGYDTMDYWGQGTLVTVSS VL: EIQMTQSPSSLSASPGDRVTITCKASQSVSFAGTGLMHWYQQKPGKVPKLLIYRASNLEAGVPSRFSGSGSGTDFTLTISSLEPEDAATYYCQQSREYPWTFGQGTKLEIKR"
,,923 pM,,,"Caninized 19D07 (antibody, V domains shown) VH: EVQLVESGGDLVKPGGSLRLSCVASGFTFSSYDMSWVRQAPGKGLQWVATITSGGGYTYSADSVKGRFTISRDNARNTLYLQMNSLRSEDTAVYYCARQNWVVGLAYWGQGTLVTVSS VL: EIVMTQSPASLSLSQEEKVTITCKSSQSLLNSGNQKNYLAWYQQKPGQAPKLLIYGASTRESGVPSRFSGSGSGTDFSFTISSLEPEDVAVYYCQNDYSYPYTFGQGTKLEIKR"
